The nature of data set [1]: Oligomerization of synthetic Y-P30 and resistance to denaturing agents (SDS-PAGE/immunoblot). It is filed as physicochemical. The settings on record: immunoblot. For orientation: Immunoblotting shows a protein as a band on a membrane.
Description: (§1) Y-P30 (aa 21–49) was synthesized as described previously [1]. For measuring stability of the peptide in vitro, Y-P30 was diluted in PBS (2 μg/μl) and incubated at room temperature over 24, 48 and 72 hours as well as 7 and 14 days. Additionally, the effect of different denaturing agents (urea, 8 M; dithiothreitol (DTT), 50 mM and 100 mM; iodoacetamide, 50 mM) was studied with incubation times of 2 and 12 hours. Thereafter, 4x sample loading dye (containing 5% beta-mercaptoethanol and 8% SDS) was added to 1x final concentration, all samples were boiled for 5 min at 95°C and subjected to SDS-PAGE with subsequent immunoblotting using a rabbit anti-Y-P30 antibody described previously [1, 2].
For data set [2] the following is noted: chemical stability; Y-P30 (aa 21-49) 2 μg/μl in PBS, room temperature, Eppendorf tube on bench shelf with regular light exposure; 24, 48, 72 h, 7 and 14 days; SDS-PAGE, immunoblot with rabbit anti-Y-P30; 13,5 μg per lane.
Description: as §1

Take “Y-P30: synthetic survival promoting peptide, aa 21–49 of the human Y-P30/dermcidin precursor (DPEAASAPGSGNPCHEASAAQKENAGEDP; Survival-promoting peptide; UniProt P81605 21-49, looked up, fragment)”: the “apparent size of SDS-resistant multimer of the synthetic peptide” value in data set [1] (SDS-PAGE after boiling 5 min at 95°C in loading dye (5% beta-mercaptoethanol, 8% SDS at 4x), 10 μg per lane) is on record as 10–15 kDa. Further, the “resistance of the 10-15 kDa oligomer species to denaturing agents” value in data set [1] (urea 8 M, DTT 50 mM and 100 mM, iodoacetamide 50 mM, incubation 2 h and 12 h (overnight), SDS-PAGE) is “resistant to urea, DTT and iodoacetamide”. For the same substance, the “time for which the 15 kDA oligomer is stable” value in data set [2] is recorded as “at least 14 days”.

Source of the values: article PMC4082292, “Analysis of Y-P30/Dermcidin expression and properties of the Y-P30 peptide” (BMC Research Notes, 2014).
